The source of these data is PMC12102759 (2025).

B1: AMOTL2 peptide 64-79 (Angiomotin-like protein 2), 16-mer library wild type / TNKS ANK (TNKS 12 ANK repeats, residues 174-649) (parent complex)
chain 1: QVLQQATRQEPQGQEH
chain 2: TGVPAVSGALRELLEACRNGDVSRVKRLVDAANVNAKDMAGRKSSPLHFAAGFGRKDVVEHLLQMGANVHARDDGGLIPLHNACSFGHAEVVSLLLCQGADPNARDNWNYTPLHEAAIKGKIDVCIVLLQHGADPNIRNTDGKSALDLADPSAKAVLTGEYKKDELLEAARSGNEEKLMALLTPLNVNCHASDGRKSTPLHLAAGYNRVRIVQLLLQHGADVHAKDKGGLVPLHNACSYGHYEVTELLLKHGACVNAMDLWQFTPLHEAASKNRVEVCSLLLSHGADPTLVNCHGKSAVDMAPTPELRERLTYEFKGHSLLQAAREADLAKVKKTLALEIINFKQPQSHETALHCAVASLHPKRKQVTELLLRKGANVNEKNKDFMTPLHVAAERAHNDVMEVLHKHGAKMNALDTLGQTALHRAALAGHLQTCRLLLSYGSDPSIISLQGFTAAQMGNEAVQQILSESTPIRTSD

Variants of B1 are the subject of this experiment. Nature of the experiment: proteomic peptide phage display deep mutational scan (ProP-PD DMS): M13 P8 16-mer library selected against immobilised GST-tagged bait for four days (rounds), NGS of the eluted pools per day and pseudo-replica; bait immobilised on MaxiSorp plates (10 µg), library pre-cleared on GST, 2 h binding at 4 °C, five washes; one round per day, days 1-4; value from days 2 and 3.
On to chain 1 QVLQQATRQEPQGIEH [chain 1 Q14I], for which the screen value was 0.002 average fractional NGS count over selection days 2 and 3 (reads of this peptide / all reads for the bait, averaged over ….
To chain 1 QVLQQATRQEPQGHEH [chain 1 Q14H] belongs 0.00069 average fractional NGS count over selection days 2 and 3 (reads of this peptide / all reads for the bait, averaged over …; to chain 1 QVLQQATRQEPQGDEH [chain 1 Q14D], 0.00025 average fractional NGS count over selection days 2 and 3 (reads of this peptide / all reads for the bait, averaged over …; to chain 1 QVLQQATRQEPQGKEH [chain 1 Q14K], 0.000473 average fractional NGS count over selection days 2 and 3 (reads of this peptide / all reads for the bait, averaged over ….
To chain 1 QVLQQATRQEPQGEEH [chain 1 Q14E] belongs 0.000547 average fractional NGS count over selection days 2 and 3 (reads of this peptide / all reads for the bait, averaged over ….
For chain 1 QVLQEATRQEPQGQEH [chain 1 Q5E], the screen value was 0.000474 average fractional NGS count over selection days 2 and 3 (reads of this peptide / all reads for the bait, averaged over ….
Regarding chain 1 QVLQKATRQEPQGQEH [chain 1 Q5K], the screen value is 0.000455 average fractional NGS count over selection days 2 and 3 (reads of this peptide / all reads for the bait, averaged over ….
Turning to chain 1 QVLQVATRQEPQGQEH [chain 1 Q5V], the screen value is 0.00207 average fractional NGS count over selection days 2 and 3 (reads of this peptide / all reads for the bait, averaged over ….
With chain 1 QVLQFATRQEPQGQEH [chain 1 Q5F], the screen value was 0.00178 average fractional NGS count over selection days 2 and 3 (reads of this peptide / all reads for the bait, averaged over ….
Regarding chain 1 QVLQSATRQEPQGQEH [chain 1 Q5S], the screen value is 0.00183 average fractional NGS count over selection days 2 and 3 (reads of this peptide / all reads for the bait, averaged over ….
With chain 1 QVLQQATRQEPQRQEH [chain 1 G13R], the screen value was 0.000155 average fractional NGS count over selection days 2 and 3 (reads of this peptide / all reads for the bait, averaged over ….
Next, chain 1 QVKQQATRQEPQGQEH [chain 1 L3K]: 0.00157 average fractional NGS count over selection days 2 and 3 (reads of this peptide / all reads for the bait, averaged over …; chain 1 QVPQQATRQEPQGQEH [chain 1 L3P]: 0.000422 average fractional NGS count over selection days 2 and 3 (reads of this peptide / all reads for the bait, averaged over ….
To chain 1 QVMQQATRQEPQGQEH [chain 1 L3M] belongs 0.000608 average fractional NGS count over selection days 2 and 3 (reads of this peptide / all reads for the bait, averaged over …; to chain 1 QVIQQATRQEPQGQEH [chain 1 L3I], 0.00105 average fractional NGS count over selection days 2 and 3 (reads of this peptide / all reads for the bait, averaged over ….
Regarding chain 1 QVFQQATRQEPQGQEH [chain 1 L3F], the screen value was 0.00165 average fractional NGS count over selection days 2 and 3 (reads of this peptide / all reads for the bait, averaged over ….
Take chain 1 QVQQQATRQEPQGQEH [chain 1 L3Q]: the screen value is 0.00366 average fractional NGS count over selection days 2 and 3 (reads of this peptide / all reads for the bait, averaged over ….
To chain 1 QVTQQATRQEPQGQEH [chain 1 L3T] belongs 0.00246 average fractional NGS count over selection days 2 and 3 (reads of this peptide / all reads for the bait, averaged over …; to chain 1 QVDQQATRQEPQGQEH [chain 1 L3D], 0.000181 average fractional NGS count over selection days 2 and 3 (reads of this peptide / all reads for the bait, averaged over …; to chain 1 QVAQQATRQEPQGQEH [chain 1 L3A], 0.000396 average fractional NGS count over selection days 2 and 3 (reads of this peptide / all reads for the bait, averaged over ….
To chain 1 QVLQQATRQMPQGQEH [chain 1 E10M] belongs 0.00083 average fractional NGS count over selection days 2 and 3 (reads of this peptide / all reads for the bait, averaged over …; to chain 1 QVLQQATRQAPQGQEH [chain 1 E10A], 0.00157 average fractional NGS count over selection days 2 and 3 (reads of this peptide / all reads for the bait, averaged over ….
Take chain 1 QVLQQATRQHPQGQEH [chain 1 E10H]: the screen value was 0.000153 average fractional NGS count over selection days 2 and 3 (reads of this peptide / all reads for the bait, averaged over ….
chain 1 QVLQQATRQVPQGQEH [chain 1 E10V]: the screen value is 0.000245 average fractional NGS count over selection days 2 and 3 (reads of this peptide / all reads for the bait, averaged over ….
Take chain 1 QVLQQATRQFPQGQEH [chain 1 E10F]: the screen value is 0.000339 average fractional NGS count over selection days 2 and 3 (reads of this peptide / all reads for the bait, averaged over ….
For the variant chain 1 QVLQQATRQQPQGQEH [chain 1 E10Q], the screen value is 0.000624 average fractional NGS count over selection days 2 and 3 (reads of this peptide / all reads for the bait, averaged over ….
Regarding chain 1 QVLQQATRWEPQGQEH [chain 1 Q9W], the screen value was 0.000813 average fractional NGS count over selection days 2 and 3 (reads of this peptide / all reads for the bait, averaged over ….
For the variant chain 1 QVLQQATREEPQGQEH [chain 1 Q9E], the screen value was 0.000877 average fractional NGS count over selection days 2 and 3 (reads of this peptide / all reads for the bait, averaged over ….
Regarding chain 1 QVLQQATRAEPQGQEH [chain 1 Q9A], the screen value was 0.00163 average fractional NGS count over selection days 2 and 3 (reads of this peptide / all reads for the bait, averaged over ….
With chain 1 QVLQQATRVEPQGQEH [chain 1 Q9V], the screen value was 0.000414 average fractional NGS count over selection days 2 and 3 (reads of this peptide / all reads for the bait, averaged over ….
On to chain 1 QVLHQATRQEPQGQEH [chain 1 Q4H], for which the screen value was 0.000314 average fractional NGS count over selection days 2 and 3 (reads of this peptide / all reads for the bait, averaged over ….
Next, chain 1 QVLSQATRQEPQGQEH [chain 1 Q4S]: 0.000703 average fractional NGS count over selection days 2 and 3 (reads of this peptide / all reads for the bait, averaged over …; chain 1 QVLKQATRQEPQGQEH [chain 1 Q4K]: 0.000138 average fractional NGS count over selection days 2 and 3 (reads of this peptide / all reads for the bait, averaged over ….
Next, chain 1 QVLIQATRQEPQGQEH [chain 1 Q4I]: 0.0028 average fractional NGS count over selection days 2 and 3 (reads of this peptide / all reads for the bait, averaged over ….
Next, chain 1 QVLPQATRQEPQGQEH [chain 1 Q4P]: 0.000712 average fractional NGS count over selection days 2 and 3 (reads of this peptide / all reads for the bait, averaged over ….
Consider chain 1 QVLLQATRQEPQGQEH [chain 1 Q4L], for which the screen value was 0.000267 average fractional NGS count over selection days 2 and 3 (reads of this peptide / all reads for the bait, averaged over ….
chain 1 QVLNQATRQEPQGQEH [chain 1 Q4N]: the screen value is 0.00124 average fractional NGS count over selection days 2 and 3 (reads of this peptide / all reads for the bait, averaged over ….
For the variant chain 1 QVLDQATRQEPQGQEH [chain 1 Q4D], the screen value was 0.000668 average fractional NGS count over selection days 2 and 3 (reads of this peptide / all reads for the bait, averaged over ….
Next, chain 1 QVLQQAWRQEPQGQEH [chain 1 T7W]: 0.00146 average fractional NGS count over selection days 2 and 3 (reads of this peptide / all reads for the bait, averaged over …; chain 1 QVLQQALRQEPQGQEH [chain 1 T7L]: 0.000808 average fractional NGS count over selection days 2 and 3 (reads of this peptide / all reads for the bait, averaged over ….
For the variant chain 1 QVLQQAVRQEPQGQEH [chain 1 T7V], the screen value was 0.00296 average fractional NGS count over selection days 2 and 3 (reads of this peptide / all reads for the bait, averaged over ….
Consider chain 1 QVLQQAYRQEPQGQEH [chain 1 T7Y], for which the screen value was 0.00199 average fractional NGS count over selection days 2 and 3 (reads of this peptide / all reads for the bait, averaged over ….
Turning to chain 1 QVLQQAPRQEPQGQEH [chain 1 T7P], the screen value is 0.000581 average fractional NGS count over selection days 2 and 3 (reads of this peptide / all reads for the bait, averaged over ….
Take chain 1 QVLQQAARQEPQGQEH [chain 1 T7A]: the screen value is 0.000494 average fractional NGS count over selection days 2 and 3 (reads of this peptide / all reads for the bait, averaged over ….
On to chain 1 QVLQQAGRQEPQGQEH [chain 1 T7G], for which the screen value was 0.00299 average fractional NGS count over selection days 2 and 3 (reads of this peptide / all reads for the bait, averaged over ….
As to chain 1 QVLQQANRQEPQGQEH [chain 1 T7N], the screen value was 0.00127 average fractional NGS count over selection days 2 and 3 (reads of this peptide / all reads for the bait, averaged over ….
To chain 1 QVLQQAHRQEPQGQEH [chain 1 T7H] belongs 0.00103 average fractional NGS count over selection days 2 and 3 (reads of this peptide / all reads for the bait, averaged over ….
To chain 1 QVLQQAIRQEPQGQEH [chain 1 T7I] belongs 0.000358 average fractional NGS count over selection days 2 and 3 (reads of this peptide / all reads for the bait, averaged over …; to chain 1 QVLQQAMRQEPQGQEH [chain 1 T7M], 0.000455 average fractional NGS count over selection days 2 and 3 (reads of this peptide / all reads for the bait, averaged over ….
In the case of chain 1 QVLQQAERQEPQGQEH [chain 1 T7E], the screen value is 0.000563 average fractional NGS count over selection days 2 and 3 (reads of this peptide / all reads for the bait, averaged over ….
To chain 1 QVLQQVTRQEPQGQEH [chain 1 A6V] belongs 0.0104 average fractional NGS count over selection days 2 and 3 (reads of this peptide / all reads for the bait, averaged over ….
Turning to chain 1 QVLQQGTRQEPQGQEH [chain 1 A6G], the screen value was 0.000155 average fractional NGS count over selection days 2 and 3 (reads of this peptide / all reads for the bait, averaged over ….
To chain 1 QVLQQWTRQEPQGQEH [chain 1 A6W] belongs 0.000677 average fractional NGS count over selection days 2 and 3 (reads of this peptide / all reads for the bait, averaged over …; to chain 1 QVLQQITRQEPQGQEH [chain 1 A6I], 0.000647 average fractional NGS count over selection days 2 and 3 (reads of this peptide / all reads for the bait, averaged over ….
Next, chain 1 QVLQQRTRQEPQGQEH [chain 1 A6R]: 0.000251 average fractional NGS count over selection days 2 and 3 (reads of this peptide / all reads for the bait, averaged over …; chain 1 QVLQQHTRQEPQGQEH [chain 1 A6H]: 0.00168 average fractional NGS count over selection days 2 and 3 (reads of this peptide / all reads for the bait, averaged over ….
